Test results taken from paper PMC4188415.

How the values were obtained:
Assay in all cases: ITC
[1] = biological target: ΔIBB-KPNA5 (66-509) (human)
[2] = biological target: KPNA5 in a 1:1 complex with eVP24 (competition ITC) (human | Ebola virus) (UniProt O15131)
[3] = biological target: KPNA1 in a 1:1 complex with eVP24 (human | Ebola virus) (UniProt P52294)
Sequence of UniProt P52294 (P52294 whole entry, chain 1 of 2): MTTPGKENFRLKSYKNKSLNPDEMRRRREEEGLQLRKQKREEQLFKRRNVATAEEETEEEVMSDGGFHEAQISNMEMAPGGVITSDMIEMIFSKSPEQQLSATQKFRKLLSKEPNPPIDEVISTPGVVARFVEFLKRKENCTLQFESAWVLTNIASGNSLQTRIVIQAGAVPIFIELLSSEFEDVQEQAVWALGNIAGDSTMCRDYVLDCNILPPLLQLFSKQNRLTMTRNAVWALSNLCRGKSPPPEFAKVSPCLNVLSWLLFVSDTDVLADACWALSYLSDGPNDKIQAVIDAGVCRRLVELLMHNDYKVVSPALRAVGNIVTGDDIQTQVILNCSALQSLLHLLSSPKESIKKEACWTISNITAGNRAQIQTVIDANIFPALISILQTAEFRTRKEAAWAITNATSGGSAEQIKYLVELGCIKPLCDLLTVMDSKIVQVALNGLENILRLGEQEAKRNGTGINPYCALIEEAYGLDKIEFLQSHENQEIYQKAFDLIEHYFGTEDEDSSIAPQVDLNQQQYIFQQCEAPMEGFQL
Sequence of UniProt P52294 (Q05322 whole entry, chain 2 of 2, further chain): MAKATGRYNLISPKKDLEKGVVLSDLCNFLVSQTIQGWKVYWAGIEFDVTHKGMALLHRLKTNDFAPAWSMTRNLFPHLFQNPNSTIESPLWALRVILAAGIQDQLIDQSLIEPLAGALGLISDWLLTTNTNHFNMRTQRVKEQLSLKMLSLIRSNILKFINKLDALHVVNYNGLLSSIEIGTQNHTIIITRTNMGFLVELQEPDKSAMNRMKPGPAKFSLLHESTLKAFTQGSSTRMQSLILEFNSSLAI

Sequence of UniProt O15131 (O15131 whole entry, chain 1 of 2): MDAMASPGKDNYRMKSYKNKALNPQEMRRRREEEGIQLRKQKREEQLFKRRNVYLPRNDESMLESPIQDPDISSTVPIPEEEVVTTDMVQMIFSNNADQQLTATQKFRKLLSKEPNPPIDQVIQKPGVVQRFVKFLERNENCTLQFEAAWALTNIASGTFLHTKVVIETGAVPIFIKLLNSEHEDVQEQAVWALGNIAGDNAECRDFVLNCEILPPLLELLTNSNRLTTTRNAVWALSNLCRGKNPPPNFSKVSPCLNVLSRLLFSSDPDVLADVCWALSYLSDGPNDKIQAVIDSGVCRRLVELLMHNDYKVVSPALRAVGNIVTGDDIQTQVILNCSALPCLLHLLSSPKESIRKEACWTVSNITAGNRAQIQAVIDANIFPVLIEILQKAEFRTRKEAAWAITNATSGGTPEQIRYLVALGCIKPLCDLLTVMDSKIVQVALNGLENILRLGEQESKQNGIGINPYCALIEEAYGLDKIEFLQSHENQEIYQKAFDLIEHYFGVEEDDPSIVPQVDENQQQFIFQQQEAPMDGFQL
Sequence of UniProt O15131 (Q05322 whole entry, chain 2 of 2, further chain): as the sequence (Q05322 whole entry, chain 2 of 2, further chain) above

Substance	Kd [1]	fold difference in binding against KPNA5 without eVP24 [2]	fold difference in binding against KPNA1 without eVP24 [3]
MBP-tagged eVP24 (residues 11-237) (from UniProt Q05322 11-237) (domain or fragment)	1 to 10 nM	–	–
nucleoplasmin peptide (bipartite cNLS)	–	2 fold	2 fold
